Measurements as given in PMC8786784.
Several values for one entry are separate records, joined by “and”; a condition that tells them apart may be missing. Identical values can stand only once.

Biological target: amyloid-β (Aβ) peptide (human (endogenous in brain tissue)) (UniProt P05067)
Test: 2D-PAGE immunoblot; Aβ immunoprecipitated (4G8 and 6E10) from tris- and FA-soluble fractions of human frontal cortex, eluted in rehydration buffer (8.3 M urea, 0.5% CHAPS, 20 mM DTT), IEF pH 3-10, 4-12% Bis-Tris gel, blot with 6E10; oligomer size assigned from the band's mass

## amyloid-β (Aβ) peptide (from UniProt P05067 672-713) (peptide; other documents disagree on this pair)
  stoichiometry N: 5 and 6
